Experiments:
Test in all cases: holdup assay
Set-up in all cases: key: below the threshold = too weak to quantify, mostly under pKd 3.1 to 4
APBA1_2, Q02410 = biological target: T1, APBA1_2, Q02410
T1 sequence (Q02410 742-832, limits assumed, looked up): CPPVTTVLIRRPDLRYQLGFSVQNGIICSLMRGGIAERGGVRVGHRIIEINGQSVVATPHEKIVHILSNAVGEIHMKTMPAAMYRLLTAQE

APBA2_2, Q99767 = biological target: T2, APBA2_2, Q99767
T2 sequence (Q99767 654-744, limits assumed, looked up): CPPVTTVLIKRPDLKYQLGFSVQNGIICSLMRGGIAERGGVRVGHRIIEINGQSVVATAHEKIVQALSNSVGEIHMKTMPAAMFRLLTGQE

ARHGEF11, O15085 = biological target: T3, ARHGEF11, O15085
T3 sequence (O15085 42-136, limits assumed, looked up): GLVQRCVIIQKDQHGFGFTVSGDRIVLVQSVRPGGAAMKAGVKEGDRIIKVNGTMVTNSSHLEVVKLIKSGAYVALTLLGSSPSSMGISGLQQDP

DLG4_1, P78352 = biological target: DLG4_1, P78352
DLG4_2, P78352 = biological target: DLG4_2, P78352
GIPC2, Q8TF65 = biological target: GIPC2, Q8TF65
GRIP1_2, Q9Y3R0 = biological target: T4, GRIP1_2, Q9Y3R0
T4 sequence (Q9Y3R0 145-248, limits assumed, looked up): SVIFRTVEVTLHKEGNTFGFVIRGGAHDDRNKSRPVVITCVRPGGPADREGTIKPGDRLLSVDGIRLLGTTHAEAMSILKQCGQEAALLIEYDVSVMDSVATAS

GRIP2_4, Q9C0E4 = biological target: GRIP2_4, Q9C0E4
IL16_4, Q14005 = biological target: IL16_4, Q14005
Inadl_2, Q8NI35 = biological target: Inadl_2, Q8NI35
Inadl_4, Q8NI35 = biological target: Inadl_4, Q8NI35
Inadl_8, Q8NI35 = biological target: Inadl_8, Q8NI35
LIN7A, O14910 = biological target: T5, LIN7A, O14910
T5 sequence (O14910 103-200, limits assumed, looked up): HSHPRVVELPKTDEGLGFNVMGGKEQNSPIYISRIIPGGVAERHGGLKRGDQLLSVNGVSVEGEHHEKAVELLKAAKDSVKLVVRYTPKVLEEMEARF

LNX2_2, Q8N448 = biological target: T6, LNX2_2, Q8N448
T6 sequence (Q8N448 334-432, limits assumed, looked up): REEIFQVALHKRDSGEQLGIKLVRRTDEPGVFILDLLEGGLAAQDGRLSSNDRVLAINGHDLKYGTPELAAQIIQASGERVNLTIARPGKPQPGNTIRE

MAGI1_1, Q96QZ7 = biological target: MAGI1_1, Q96QZ7
MPP7, Q5T2T1 = biological target: T7, MPP7, Q5T2T1
T7 sequence (Q5T2T1 134-230, limits assumed, looked up): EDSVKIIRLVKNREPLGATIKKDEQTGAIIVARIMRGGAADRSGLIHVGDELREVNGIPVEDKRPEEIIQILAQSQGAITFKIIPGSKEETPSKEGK

NHERF3_3, Q5T2W1 = biological target: T8, NHERF3_3, Q5T2W1
T8 sequence (Q5T2W1 238-333, limits assumed, looked up): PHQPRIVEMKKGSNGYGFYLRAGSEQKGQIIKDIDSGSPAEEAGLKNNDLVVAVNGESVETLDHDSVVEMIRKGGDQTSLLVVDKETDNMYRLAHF

NOS1, P29475 = biological target: NOS1, P29475
PDZRN4_1, Q6ZMN7 = biological target: PDZRN4_1, Q6ZMN7
PICK1, Q9NRD5 = biological target: PICK1, Q9NRD5
PTPN13_1, Q12923 = biological target: T9, PTPN13_1, Q12923
T9 sequence (Q12923 1088-1188, limits assumed, looked up): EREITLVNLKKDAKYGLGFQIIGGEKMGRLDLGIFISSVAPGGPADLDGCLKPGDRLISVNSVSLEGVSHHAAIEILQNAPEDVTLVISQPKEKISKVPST

SNTG1, Q9NSN8 = biological target: T10, SNTG1, Q9NSN8
T10 sequence (Q9NSN8 52-150, limits assumed, looked up): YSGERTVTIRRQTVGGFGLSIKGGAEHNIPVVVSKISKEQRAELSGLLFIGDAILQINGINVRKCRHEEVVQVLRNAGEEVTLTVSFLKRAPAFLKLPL

PARD3_3, Q8TEW0 = settings: plain residues with an end cap or a label only (N-terminal biotin on a linker: ttds)
SNTA1, Q13424 = biological target: T11, SNTA1, Q13424; settings: plain residues with an end cap or a label only (N-terminal biotin on a linker: ttds)
T11 sequence (Q13424 82-180, limits assumed, looked up): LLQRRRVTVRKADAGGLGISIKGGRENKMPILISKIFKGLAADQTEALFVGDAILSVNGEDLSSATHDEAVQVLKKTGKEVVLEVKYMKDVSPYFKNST

SNX27, Q96L92 = settings: plain residues with an end cap or a label only (N-terminal biotin on a linker: ttds)
SYNJ2BP, P57105 = biological target: T12, SYNJ2BP, P57105; settings: plain residues with an end cap or a label only (N-terminal biotin on a linker: ttds)
T12 sequence (P57105 8-110, limits assumed, looked up): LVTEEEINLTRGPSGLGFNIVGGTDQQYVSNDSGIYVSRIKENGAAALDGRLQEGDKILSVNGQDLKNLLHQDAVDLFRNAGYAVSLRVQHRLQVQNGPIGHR

[1] = plain residues with an end cap or a label only (N-terminal biotin on a linker: ahx)
[2] = plain residues with an end cap or a label only (N-terminal biotin on a linker: ttds)

Measured: pKd

Chain of NOS1, P29475 (P29475 9-101): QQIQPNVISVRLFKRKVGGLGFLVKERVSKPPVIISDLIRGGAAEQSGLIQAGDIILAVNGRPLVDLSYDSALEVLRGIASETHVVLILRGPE
Chain of GRIP2_4, Q9C0E4 (Q9C0E4 446-548): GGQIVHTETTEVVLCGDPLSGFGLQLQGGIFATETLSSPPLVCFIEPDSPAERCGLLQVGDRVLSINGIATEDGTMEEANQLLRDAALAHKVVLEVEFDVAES
Chain of MAGI1_1, Q96QZ7 (Q96QZ7 1-106): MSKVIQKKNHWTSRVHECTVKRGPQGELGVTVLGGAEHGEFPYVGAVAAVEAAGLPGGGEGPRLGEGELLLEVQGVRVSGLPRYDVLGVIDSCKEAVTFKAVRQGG
Chain of IL16_4, Q14005 (Q14005 1229-1329): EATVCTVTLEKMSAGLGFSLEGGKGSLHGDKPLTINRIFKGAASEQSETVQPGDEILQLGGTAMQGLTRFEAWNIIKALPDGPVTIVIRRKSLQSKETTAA
Chain of DLG4_2, P78352 (P78352 155-259): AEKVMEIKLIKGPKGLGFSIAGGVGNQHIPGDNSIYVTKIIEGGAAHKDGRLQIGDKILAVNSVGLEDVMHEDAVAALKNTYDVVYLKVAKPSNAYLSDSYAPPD
Chain of Inadl_8, Q8NI35 (Q8NI35 1425-1530): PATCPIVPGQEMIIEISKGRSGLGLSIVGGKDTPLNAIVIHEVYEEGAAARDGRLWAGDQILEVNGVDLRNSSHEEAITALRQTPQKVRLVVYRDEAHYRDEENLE
Chain of PICK1, Q9NRD5 (Q9NRD5 17-115): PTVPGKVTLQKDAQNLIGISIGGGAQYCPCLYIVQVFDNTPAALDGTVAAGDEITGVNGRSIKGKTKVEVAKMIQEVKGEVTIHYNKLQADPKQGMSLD
Chain of Inadl_4, Q8NI35 (Q8NI35 547-651): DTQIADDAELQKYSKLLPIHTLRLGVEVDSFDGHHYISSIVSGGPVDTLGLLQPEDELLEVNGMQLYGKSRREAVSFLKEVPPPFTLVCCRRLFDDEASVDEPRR
Chain of DLG4_1, P78352 (P78352 62-152): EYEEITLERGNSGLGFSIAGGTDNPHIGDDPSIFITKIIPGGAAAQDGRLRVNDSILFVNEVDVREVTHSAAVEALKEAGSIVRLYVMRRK
Chain of PDZRN4_1, Q6ZMN7 (Q6ZMN7 213-318): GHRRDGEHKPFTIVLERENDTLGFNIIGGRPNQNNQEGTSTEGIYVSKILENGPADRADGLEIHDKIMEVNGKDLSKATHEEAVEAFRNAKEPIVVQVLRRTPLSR
Chain of Inadl_2, Q8NI35 (Q8NI35 238-335): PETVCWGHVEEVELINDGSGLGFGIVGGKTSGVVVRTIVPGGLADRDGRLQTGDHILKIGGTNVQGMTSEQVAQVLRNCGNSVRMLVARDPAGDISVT
Chain of PARD3_3, Q8TEW0 (Q8TEW0 582-685): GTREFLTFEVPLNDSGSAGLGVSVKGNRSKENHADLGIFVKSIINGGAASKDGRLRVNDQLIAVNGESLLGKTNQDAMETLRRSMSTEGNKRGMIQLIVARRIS
Chain of GIPC2, Q8TF65 (Q8TF65 112-203): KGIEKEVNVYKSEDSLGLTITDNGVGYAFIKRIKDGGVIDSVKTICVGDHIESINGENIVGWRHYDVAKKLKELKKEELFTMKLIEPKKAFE

LSDPSVSTVV [GRIN1, Q05586;Q05586-2]
4.64: LNX2_2, Q8N448; [1]
4.1: DLG4_1, P78352; [1]
4.01: ARHGEF11, O15085; [1]
4.31: DLG4_2, P78352; [1]
below the threshold: APBA1_2, Q02410; [1] | APBA2_2, Q99767; [1] | GIPC2, Q8TF65; [1] | GRIP1_2, Q9Y3R0; [1] | GRIP2_4, Q9C0E4; [1] | IL16_4, Q14005; [1] | Inadl_2, Q8NI35; [1] | Inadl_4, Q8NI35; [1] | Inadl_8, Q8NI35; [1] | LIN7A, O14910; [1] | MAGI1_1, Q96QZ7; [1] | MPP7, Q5T2T1; [1] | NHERF3_3, Q5T2W1; [1] | NOS1, P29475; [1] | PDZRN4_1, Q6ZMN7; [1] | PICK1, Q9NRD5; [1] | PTPN13_1, Q12923; [1] | SNTG1, Q9NSN8; [1]

QRQARSETLV [HPV59-E6, Q81964]
4.81: SYNJ2BP, P57105
4.64: SNX27, Q96L92
below the threshold: APBA1_2, Q02410; [2] | APBA2_2, Q99767; [2] | ARHGEF11, O15085; [2] | GIPC2, Q8TF65; [2] | GRIP1_2, Q9Y3R0; [2] | GRIP2_4, Q9C0E4; [2] | IL16_4, Q14005; [2] | Inadl_2, Q8NI35; [2] | Inadl_4, Q8NI35; [2] | Inadl_8, Q8NI35; [2] | LIN7A, O14910; [2] | MAGI1_1, Q96QZ7; [2] | MPP7, Q5T2T1; [2] | NHERF3_3, Q5T2W1; [2] | PARD3_3, Q8TEW0 | PTPN13_1, Q12923; [2]
5.45: DLG4_2, P78352; [2]
3.85: PICK1, Q9NRD5; [2]
5.04: LNX2_2, Q8N448; [2]
4.17: SNTG1, Q9NSN8; [2]
4.04: PDZRN4_1, Q6ZMN7; [2]
5.11: DLG4_1, P78352; [2]
3.99: SNTA1, Q13424
4.26: NOS1, P29475; [2]

NDPAWDETNL [ARHGEF7, Q14155;Q14155-1]
3.98: PDZRN4_1, Q6ZMN7; [2]
4.16: PARD3_3, Q8TEW0
below the threshold: APBA2_2, Q99767; [2] | DLG4_1, P78352; [2] | DLG4_2, P78352; [2] | GRIP1_2, Q9Y3R0; [2] | GRIP2_4, Q9C0E4; [2] | IL16_4, Q14005; [2] | Inadl_2, Q8NI35; [2] | Inadl_4, Q8NI35; [2] | Inadl_8, Q8NI35; [2] | LIN7A, O14910; [2] | LNX2_2, Q8N448; [2] | MAGI1_1, Q96QZ7; [2] | MPP7, Q5T2T1; [2] | NHERF3_3, Q5T2W1; [2] | NOS1, P29475; [2] | PICK1, Q9NRD5; [2] | PTPN13_1, Q12923; [2]
4.26: SNTG1, Q9NSN8; [2]
5.66: SNX27, Q96L92
